Test results as given in patent publication US20230381333A1 (HANMI PHARM, published 2023).
Bridge positions count the residues as written; N and C are the ends. Square brackets hold non-standard residues; d marks the D form. Ends that are not written are not given here. * marks the point of attachment. Acetyl(2-(4-imidazolyl)) = O=C(Cc1c[nH]cn1)*; Aib = CC(C)(N)C(=O)O

Tests used:
Test in all cases: cell-based or functional assay
human GIP receptor = biological target: T1, human GIP receptor (human, UniProt P48546 22-466)
T1 sequence (looked up): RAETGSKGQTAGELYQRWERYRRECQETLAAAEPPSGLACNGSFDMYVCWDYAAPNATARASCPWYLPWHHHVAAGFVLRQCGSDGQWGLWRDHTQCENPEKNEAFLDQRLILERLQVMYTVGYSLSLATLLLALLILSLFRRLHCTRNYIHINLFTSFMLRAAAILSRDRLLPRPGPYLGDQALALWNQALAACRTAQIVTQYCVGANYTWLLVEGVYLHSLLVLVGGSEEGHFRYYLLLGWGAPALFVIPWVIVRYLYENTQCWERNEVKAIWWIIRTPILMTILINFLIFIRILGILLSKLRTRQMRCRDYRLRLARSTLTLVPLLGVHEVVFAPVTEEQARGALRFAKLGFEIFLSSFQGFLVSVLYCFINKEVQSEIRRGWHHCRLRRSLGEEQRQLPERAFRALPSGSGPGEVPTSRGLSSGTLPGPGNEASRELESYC

human GLP-1 receptor = human GLP-1 receptor (human, UniProt P43220 24-463)
human GCG receptor = human GCG receptor (human, UniProt P47871 26-477)
Chain of human GCG receptor (P47871 26-477): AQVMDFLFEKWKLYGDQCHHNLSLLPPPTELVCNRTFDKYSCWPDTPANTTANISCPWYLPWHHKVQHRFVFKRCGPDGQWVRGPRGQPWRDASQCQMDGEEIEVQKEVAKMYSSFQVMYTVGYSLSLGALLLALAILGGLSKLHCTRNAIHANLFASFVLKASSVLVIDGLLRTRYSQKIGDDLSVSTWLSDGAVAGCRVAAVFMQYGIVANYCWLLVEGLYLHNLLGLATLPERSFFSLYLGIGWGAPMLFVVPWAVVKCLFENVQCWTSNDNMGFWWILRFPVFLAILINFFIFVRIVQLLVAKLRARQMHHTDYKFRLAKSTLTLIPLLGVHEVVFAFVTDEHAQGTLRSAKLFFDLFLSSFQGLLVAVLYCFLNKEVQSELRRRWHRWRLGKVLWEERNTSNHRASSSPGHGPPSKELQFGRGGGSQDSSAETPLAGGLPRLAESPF

H[Aib]QGTFTSDVSKYLDGQAAQEFVAWLLKGC [triple agonist of SEQ ID NO: 8]
In vitro activity compared to native-type peptide (%), vs GIP (human GIP receptor): < 0.1%
In vitro activity compared to native-type peptide (%), vs GLP-1 (human GLP-1 receptor): 14.2%
In vitro activity compared to native-type peptide (%), vs Glucagon (human GCG receptor): 0.1%

H[Aib]QGTFTSDYSKYLDEKRQKEFVQWLLNTKC (bridge 16-20) [triple agonist of SEQ ID NO: 58]
In vitro activity compared to native-type peptide (%), vs GIP (human GIP receptor): 0.2%
In vitro activity compared to native-type peptide (%), vs GLP-1 (human GLP-1 receptor): 39.1%
In vitro activity compared to native-type peptide (%), vs Glucagon (human GCG receptor): 2.6%

Y[Aib]QGTFTSDCSKYLDERAAKDFVQWLLDHHPSSGQPPPS (bridge 16-20) [triple agonist of SEQ ID NO: 72]
In vitro activity compared to native-type peptide (%), vs GIP (human GIP receptor): 1.6%
In vitro activity compared to native-type peptide (%), vs GLP-1 (human GLP-1 receptor): 11.5%
In vitro activity compared to native-type peptide (%), vs Glucagon (human GCG receptor): 1%

Y[Aib]QGTFTSDYSKYLDECRAKDFVQWLLDHHPSSGQPPPS (bridge 16-20) [triple agonist of SEQ ID NO: 66]
In vitro activity compared to native-type peptide (%), vs GIP (human GIP receptor): 17.2%
In vitro activity compared to native-type peptide (%), vs GLP-1 (human GLP-1 receptor): 15.8%
In vitro activity compared to native-type peptide (%), vs Glucagon (human GCG receptor): 172%

{Acetyl(2-(4-imidazolyl))}-[Aib]QGTFTSDYSKCLDEKRAKEFVQWLLDHHPSSGQPPPS (bridge 15-19) [triple agonist of SEQ ID NO: 74]
In vitro activity compared to native-type peptide (%), vs GIP (human GIP receptor): 1%
In vitro activity compared to native-type peptide (%), vs GLP-1 (human GLP-1 receptor): 12.9%
In vitro activity compared to native-type peptide (%), vs Glucagon (human GCG receptor): 0.9%

H[Aib]QGTFTSDVSKYLDGQAAKEFVAWLLKGC [triple agonist of SEQ ID NO: 7]
In vitro activity compared to native-type peptide (%), vs GIP (human GIP receptor): < 0.1%
In vitro activity compared to native-type peptide (%), vs GLP-1 (human GLP-1 receptor): 13.7%
In vitro activity compared to native-type peptide (%), vs Glucagon (human GCG receptor): < 0.1%

{Acetyl(2-(4-imidazolyl))}-[Aib]QGTFTSDCSKYLDERAAQDFVQWLLDGGPSSGAPPPS [triple agonist of SEQ ID NO: 63]
In vitro activity compared to native-type peptide (%), vs GIP (human GIP receptor): < 0.1%
In vitro activity compared to native-type peptide (%), vs GLP-1 (human GLP-1 receptor): 15.3%
In vitro activity compared to native-type peptide (%), vs Glucagon (human GCG receptor): < 0.1%

Y[Aib]QGTFTSDYSKYLDECAAKDFVQWLLDHHPSSGQPPPS (also: ring formation (underlined residues), positions not given here) [triple agonist of SEQ ID NO: 67]
In vitro activity compared to native-type peptide (%), vs GIP (human GIP receptor): 39.8%
In vitro activity compared to native-type peptide (%), vs GLP-1 (human GLP-1 receptor): 28.5%
In vitro activity compared to native-type peptide (%), vs Glucagon (human GCG receptor): 46.2%

Y[Aib]QGTFTSDYSKYLDECAAKEFVQWLLDHHPSSGQPPPS (bridge 16-20) [triple agonist of SEQ ID NO: 64]
In vitro activity compared to native-type peptide (%), vs GIP (human GIP receptor): 92.9%
In vitro activity compared to native-type peptide (%), vs GLP-1 (human GLP-1 receptor): 64.6%
In vitro activity compared to native-type peptide (%), vs Glucagon (human GCG receptor): 60.1%

{Acetyl(2-(4-imidazolyl))}-[Aib]QGTFTSDYSIAMDEKHCKDFVNWLLNTK (bridge 15-19) [triple agonist of SEQ ID NO: 60]
In vitro activity compared to native-type peptide (%), vs GIP (human GIP receptor): 8.2%
In vitro activity compared to native-type peptide (%), vs GLP-1 (human GLP-1 receptor): 106%
In vitro activity compared to native-type peptide (%), vs Glucagon (human GCG receptor): < 0.1%

{Acetyl(2-(4-imidazolyl))}-[Aib]QGTFTSDYSKYLDECRAKEFVQWLLDHHPSSGQPPPS (bridge 15-19) [triple agonist of SEQ ID NO: 73]
In vitro activity compared to native-type peptide (%), vs GIP (human GIP receptor): 3%
In vitro activity compared to native-type peptide (%), vs GLP-1 (human GLP-1 receptor): 22.6%
In vitro activity compared to native-type peptide (%), vs Glucagon (human GCG receptor): 5.4%

H[Aib]QGTFTSDYSIAMDEIHQKDFVNWLLNTC (bridge 16-20) [triple agonist of SEQ ID NO: 57]
In vitro activity compared to native-type peptide (%), vs GIP (human GIP receptor): 0.3%
In vitro activity compared to native-type peptide (%), vs GLP-1 (human GLP-1 receptor): 11.7%
In vitro activity compared to native-type peptide (%), vs Glucagon (human GCG receptor): < 0.1%

{Acetyl(2-(4-imidazolyl))}-[Aib]QGTFTSDYSICMDEKHQKDFVNWLLNTK (bridge 15-19) [triple agonist of SEQ ID NO: 59]
In vitro activity compared to native-type peptide (%), vs GIP (human GIP receptor): 4%
In vitro activity compared to native-type peptide (%), vs GLP-1 (human GLP-1 receptor): 40.3%
In vitro activity compared to native-type peptide (%), vs Glucagon (human GCG receptor): < 0.1%

{Acetyl(2-(4-imidazolyl))}-[Aib]QGTFTSDKSKYLDERAAQDFVQWLLDGGPSSGAPPPS [triple agonist of SEQ ID NO: 62]
In vitro activity compared to native-type peptide (%), vs GIP (human GIP receptor): < 0.1%
In vitro activity compared to native-type peptide (%), vs GLP-1 (human GLP-1 receptor): 5.2%
In vitro activity compared to native-type peptide (%), vs Glucagon (human GCG receptor): < 0.1%

Y[Aib]QGTFTSDYSKCLDEKAAKEFVQWLLDHHPSSGQPPPS (bridge 16-20) [triple agonist of SEQ ID NO: 68]
In vitro activity compared to native-type peptide (%), vs GIP (human GIP receptor): 107%
In vitro activity compared to native-type peptide (%), vs GLP-1 (human GLP-1 receptor): 27.9%
In vitro activity compared to native-type peptide (%), vs Glucagon (human GCG receptor): 8.8%

Y[Aib]QGTFTSDYSKCLDEKRAKDFVQWLLDHHPSSGQPPPS (bridge 16-20) [triple agonist of SEQ ID NO: 70]
In vitro activity compared to native-type peptide (%), vs GIP (human GIP receptor): 64.4%
In vitro activity compared to native-type peptide (%), vs GLP-1 (human GLP-1 receptor): 15.1%
In vitro activity compared to native-type peptide (%), vs Glucagon (human GCG receptor): 71.3%

H[Aib]QGTFTSDYSKCLDEKRAKEFVQWLLDHHPSSGQPPPS (bridge 16-20) [triple agonist of SEQ ID NO: 65]
In vitro activity compared to native-type peptide (%), vs GIP (human GIP receptor): 11.6%
In vitro activity compared to native-type peptide (%), vs GLP-1 (human GLP-1 receptor): 95.4%
In vitro activity compared to native-type peptide (%), vs Glucagon (human GCG receptor): 25.2%

Y[Aib]QGTFTSDYSKCLDERAAKEFVQWLLDHHPSSGQPPPS (bridge 16-20) [triple agonist of SEQ ID NO: 69]
In vitro activity compared to native-type peptide (%), vs GIP (human GIP receptor): 62.8%
In vitro activity compared to native-type peptide (%), vs GLP-1 (human GLP-1 receptor): 24.3%
In vitro activity compared to native-type peptide (%), vs Glucagon (human GCG receptor): 9.6%

Y[Aib]QGTFTSDYSKYLDERACKDFVQWLLDHHPSSGQPPPS (bridge 16-20) [triple agonist of SEQ ID NO: 71]
In vitro activity compared to native-type peptide (%), vs GIP (human GIP receptor): 94.7%
In vitro activity compared to native-type peptide (%), vs GLP-1 (human GLP-1 receptor): 90.1%
In vitro activity compared to native-type peptide (%), vs Glucagon (human GCG receptor): 12.7%

{Acetyl(2-(4-imidazolyl))}-[Aib]QGTFTSDYSIAMDEIACKDFVNWLLNTK (bridge 15-19) [triple agonist of SEQ ID NO: 61]
In vitro activity compared to native-type peptide (%), vs GIP (human GIP receptor): 2.8%
In vitro activity compared to native-type peptide (%), vs GLP-1 (human GLP-1 receptor): 59.8%
In vitro activity compared to native-type peptide (%), vs Glucagon (human GCG receptor): < 0.1%
